Data as given in patent US12674174B2, “Protoporphyrinogen oxidase (PPO) resistance plant” (PLANTARC BIO LTD., priority 2022, dated 2026).

Assays:
[1] = tested on: transgenic Arabidopsis plants; format: in vivo; conditions: for level of resistance against Aurora (in words): Aurora 0.01% to 0.5%, compared to control plants; for level of resistance to Strike, more tolerant to treatment as compared to control plants: Strike 0.01% to 1%, 5 orders of magnitude
Description: (SEQ ID NO: 8 was cloned from SEQ ID NO: 1, SEQ ID NO: 9 was cloned from SEQ ID NO: 2, SEQ ID NO: 10 was cloned from SEQ ID NO: 3, SEQ ID NO: 11 was cloned from SEQ ID NO: 4, SEQ ID NO: 12 was cloned from SEQ ID NO: 5, SEQ ID NO: 13 was cloned from SEQ ID NO: 6 SEQ ID NO: 14 was cloned from SEQ ID NO: 7). […] FIG. 1B summarizes the results of the three experiments described hereinabove.

Arabidopsis plants = conditions: yes/no

| Molecule | level of resistance against Aurora (in words) [1] | level of resistance to Strike, more tolerant to treatment as compared to control plants [1] | High concentration herbicide tolerance (Arabidopsis plants; Table 1) | Herbicide tolerance (Arabidopsis plants; Table 2, FIG. 6C legend: Star 1.25 kg/hectare) |
| --- | --- | --- | --- | --- |
| SEQ ID NO: 2: PPO from Aspergillus sp. Protein. (protein, listed as Aspergillus sp.) MRLPCASSRAFRQVRAPLALLHRGQRHAVHTKQFDAAVIGGGITGLTAAYQLSRDPSCSKVTLYEKSSHLGGWLSSEQIPVPGGHVVFEYGPRTLRTSSPSCLPMMDLIMNLDLLDDVLICDKKSPAAQNRYIYYPDHLVRLPFPPTEGLLKTAWTLLMEPLFETFLYSAIFEKPKRAENTHILSRDESVADFVSRRFSPKISENLASAVMAGIFAGDVNRLSAEMAIGYVRELEKRYGSIVDGMMTQRASEMRAMPMDELLALESVAVPSHSDDRYWKSLRAVVTDASVLTLKNGLGQLTDAMAAQLRSSRNVEVVTGTEVTSLSQNPKTQDLTIGFGKNESRTHNRVIATHAPSSLARQIQNTKVGVVPSDTIRDLGQNNYAVTVMVVNLYYEDPDLVPVEGFGYLLPSSVPFEQNPERALGVIFGSQSSEGQDTAPGTKLTVIMGGHLWDGWSESDYPDPDKAIEMAQALLHRHLGIKTAPSVARARLLRDAIPQYTVGHLSRMKELSHSVRSDFHKRLTLAGAWYGTVGIGVVDCIRQGYLASSYGVGSKKLGPGNSRRPWTKHDFHNWELEGGIATSPVRFDNVHVTERQHY | very high levels of resistance | about 10^5 | yes | yes |
| SEQ ID NO: 6: PPO from Rhizopus sp. Protein. (protein, listed as Rhizopus sp.) MSSVAILGGGISGLSAAYYLARMAPPTTKITLIEGKKRLGGWIESRRVTPGHYDNIHQLPKNNSKENTILFEAGPRTLRPEGSNGAILLEMIRHLELNNENLMSVSKSHPSARHRYIYYKDKINTLPSDLQSFLLNKPPVLKSVPLAALLEPLKPSRFDKDGIAKDGIQDESIYSFMTRRFNEHTAIHLMGAVIHGIYAGDIKSLSLQSTLRSLYEAERIYGSAVLGMMKGASQVTTSVRERGMAARSRKEDPEWFGRMEKMSVIGFKSGMDTLPHQITSWLEQCPNVEVITDDPAEHIEIAHENKIKTQKGKTVHADHIISTLPSPVLERLVQHQPVLPHLSYNPSADVAVVNLAYSPDEMKLQYDGFGFLTPHRDTPYGNPLPGTLGVVFDSNALPIESERAVKLTAMIGGSDWKDAFGNVPIDELEPKVALDYTRKAVGTFLDIHAEPRYSMVNLQKQCIPQYLVGHQDRMLSLHHAIKKNYGHALSVSGASYLGVSVPDCIKNSRMLVEELLVSGALGSRQKVVTGLGKLEEQPTVDEMRDNARLSRGNTSVIMKS | very high levels of resistance | about 10^5 |  |  |
